23 molecules from patent US20250215097A1 (BEIJING TIANNUOJIANCHENG PHARMA TECH, published 2025) can be followed below.

The labels stand for the following.
T1: human CCR4 (human, UniProt P51679 1-360)
T1 construct: also called hCCR4; human CCR4+ cells
T1 sequence: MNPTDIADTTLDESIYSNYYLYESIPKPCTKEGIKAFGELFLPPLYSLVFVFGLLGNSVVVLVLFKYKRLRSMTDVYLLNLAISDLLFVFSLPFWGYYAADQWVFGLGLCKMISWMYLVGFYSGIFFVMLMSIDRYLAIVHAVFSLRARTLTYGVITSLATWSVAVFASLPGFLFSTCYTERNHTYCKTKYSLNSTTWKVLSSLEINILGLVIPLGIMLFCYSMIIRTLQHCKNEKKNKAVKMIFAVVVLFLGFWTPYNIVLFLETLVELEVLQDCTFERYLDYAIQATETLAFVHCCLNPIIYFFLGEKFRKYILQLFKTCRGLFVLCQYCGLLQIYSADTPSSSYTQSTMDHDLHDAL

B1: 144D2 Fab antibody (Fab, V domains shown)
VH: EVQLVESGGGLVQPKGSLKLSCAASGFTFNAFAMNWVRQAPGKGLEWVARIRSKSNNYATYYADSVIDRFTISRDDSQSMLYLQMNNLKTEDTAMYYCVRGKEAGAYYAMDYWGQGTSVTVSS
VL: DIVMTQAAPSVPVTPGESVSISCRSSKSLLHSNGNTYLYWFLQRPGQSPQLLIYRMSNLASGVPDRFSGSGSGTAFTLRISRVEAEDVGVYYCMQHLEYPLTFGAGTKLEIK
notes: also called clone 144D2; 144D2 (female parent)
B2: 87D8 Fab antibody (Fab, V domains shown)
VH: B1 VH with K19R, A31T, F32Y, V48I, I67K
VL: B1 VL with I111L
notes: also called clone 87D8
B3: 102H5 Fab antibody (Fab, V domains shown)
VH: QVQLVESNGRLVQPKGSLKLSCAASGFTFNAYAMNWVRQAPGKGLEWVARIRSKSNNYATYYADSVKDRFTISRDDSQNMLYLQMNNLKTEDTAMYFCVRQKFGARGYYALDFWGQGATVTVSS
VL: DIVLTQSPASLAVSLGQRATISCRASESVEYYGTSLMQWYQQKPGQPPKLLIYAASNVESGVPARFSGSGSGTDFSLNIHPVEEDDIAMYFCQQSRKVPYTFGGGTKLEIK
notes: also called clone 102H5
B4: 113B3 Fab antibody (Fab, V domains shown)
VH: B3 VH with Q1E, R10G, N79S, A105S
VL: QIVLTQSPAIMSASLGERVTMTCTASSSVSSSYLHWYQQKPGSSPKLWIYSTSNLASGVPARFSGSGSGTSYSLTISSMEAEDAATYYCHQYHRSPRTFGGGTRLEIK
notes: also called clone 113B3
B5: 116F10 Fab antibody (Fab, V domains shown)
VH: B3 VH with Q1E, N8Y, R10G, M80I, T90I, A105S, T119S
VL: EIVLTQSPAIMSVSPGEKVTMTCRASSSVSSSYLHWYQQKSGASPKLWIYSTSTLASGVPARFSGSGSGTSYSLTISSVEAEDAATYYCQHYTVYPLGTFGGGTKLEIK
notes: also called clone 116F10
B6: 139A9 Fab antibody (Fab, V domains shown)
VH: B3 VH with N79S, T119S
VL: ENVLTQSPTTMAASPGEKITITCSASSSISSNYLHWYQQKPGFSPKLLIYRTSNLASGVPARFSGSGSGTSYSLTIGTMEAEDVATYYCQQGSSIPLTFGAGTKLELK
notes: also called clone 139A9
B7: 109F6 Fab antibody (Fab, V domains shown)
VH: B3 VH with N79S, T119S
VL: DIVLTQSPASLAVSLGQRATISCRASKSVSTSGYSYMHWYQQKPGQPPKLLIYLASNLESGVPARFSGSGSGTDFTLNIHPVEEEDAATYYCQHSRELPPTFGGGTKLEIK
notes: also called clone 109F6
B8: 110G2 Fab antibody (Fab, V domains shown)
VH: B3 VH with N79S, T119S
VL: EILLTQSPAIMSASPGEKVTMTCRASSSVSSSYLHWYQQKSGASPKLWIYSTSNLASGVPARFSGSGSGTSYSLTISSVEAEDAATYYCQQYSGYPYTFGGGTKLEIK
notes: also called clone 110G2
B9: 30A7 anti-CCR8 chimeric antibody (antibody, V domains shown)
VH: B1 VH with E1Q, A31T, F32Y, N57Y, I67K, V99L
VL: B1 VL with L101F
B10: 29A8 anti-CCR8 chimeric antibody (antibody, V domains shown)
VH: B1 VH
VL: B1 VL with R82K, L101F, A105G
B11: 144D2 G34R (Fab, V domains shown)
VH: B1 VH
VL: B1 VL with G34R
notes: Purified Fab mutant
B12: 144D2 G34Y (Fab, V domains shown)
VH: B1 VH
VL: B1 VL with G34Y
notes: Purified Fab mutant
B13: 144D2 G34T (Fab, V domains shown)
VH: B1 VH
VL: B1 VL with G34T
notes: Purified Fab mutant
B14: 144D2 M56G (Fab, V domains shown)
VH: B1 VH
VL: B1 VL with M56G
notes: Purified Fab mutant
B15: 144D2 N33A (Fab, V domains shown)
VH: B1 VH
VL: B1 VL with N33A
notes: Purified Fab mutant from E. coli TG1, Ni-NTA purified
B16: 144D2 N33Y (Fab, V domains shown)
VH: B1 VH
VL: B1 VL with N33Y
notes: Purified Fab mutant
B17: 144D2 N33V (Fab, V domains shown)
VH: B1 VH
VL: B1 VL with N33V
notes: Purified Fab mutant
B18: 144D2 G34V (Fab, V domains shown)
VH: B1 VH
VL: B1 VL with G34V
notes: Purified Fab mutant
B19: 144D2 N33I (Fab, V domains shown)
VH: B1 VH
VL: B1 VL with N33I
notes: Purified Fab mutant
B20: 144D2 M56A (Fab, V domains shown)
VH: B1 VH
VL: B1 VL with M56A
notes: Purified Fab mutant
B21: 144D2 N33R (Fab, V domains shown)
VH: B1 VH
VL: B1 VL with N33R
notes: Purified Fab mutant
B22: 144D2 G34I (Fab, V domains shown)
VH: B1 VH
VL: B1 VL with G34I
notes: Purified Fab mutant
B23: 144D2 M56T (Fab, V domains shown)
VH: B1 VH
VL: B1 VL with M56T
notes: Purified Fab mutant

Residue numbers refer to the chain shown, from its start.

By EC50 is commonly meant the midpoint of the concentration-response curve. Low values mean greater potency, high ones weaker potency.

T2 sequence (P51685 whole entry): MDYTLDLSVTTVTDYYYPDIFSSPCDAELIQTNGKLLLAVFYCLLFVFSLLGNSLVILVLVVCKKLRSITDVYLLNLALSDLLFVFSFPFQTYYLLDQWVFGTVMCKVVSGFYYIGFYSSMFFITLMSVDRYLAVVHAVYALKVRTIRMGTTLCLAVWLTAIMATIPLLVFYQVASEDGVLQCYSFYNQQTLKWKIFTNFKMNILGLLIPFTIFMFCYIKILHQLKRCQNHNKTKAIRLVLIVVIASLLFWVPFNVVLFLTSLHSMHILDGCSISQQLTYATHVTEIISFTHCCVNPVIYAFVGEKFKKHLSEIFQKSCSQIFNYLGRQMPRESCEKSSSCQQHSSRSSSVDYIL

The target of the first experiment is T1, human CCR4. In words: flow cytometry of purified Fab on cells stably expressing human CCR4. The method, then: The positive clones obtained in example 1 were re-induced to express and purified to obtain a Fab antibody. The binding to cells stably expressing human CCR8, cynomolgus monkey CCR8 and human CCR4 was tested respectively, 5×10⁴ test cells were added to each well of a 96-well U-shaped plate and centrifuged to discard the supernatant, 100 μL/well of the purified Fab antibody was added and the mixture was incubated on ice for 60 minutes. After washing away the unbound primary antibody, 50 μL of a secondary antibody solution (Anti-human IgG, F(ab′)2-AF647, Jackson Immuno Research) was added to each well and the mixture was incubated on ice for 30 minutes. After washing, 50 μL of a PI/BSA solution at 5 μg/mL was added to each well and the mixture was incubated on ice for 5 minutes. Then excess secondary antibody was washed away with 0.5% BSA, the cells were resuspended by adding a PBS solution, and binding of the antibody to the cells was detected using a flow cytometer (Intellicyte iQue).
As for B1, the binding result is “no binding”.

In the case of B2, the binding result is reported as “no binding”.

With B3, the binding result is on record as “no binding”.

With B4, the binding result is reported as “no binding”.

As for B5, the binding result is “no binding”.

Consider B6, for which the binding result was “no binding”.

Turning to B7, the binding result is “no binding”.

As to B8, the binding result is on record as “no binding”.

The next experiment addresses T2, human CCR8 (human, UniProt P51685 1-355).
T2 construct: Full-length human CCR8 stably expressed on CHO or HEK293 cells; also endogenous on HuT78 cells in one ADCC assay; also called hCCR8; CHO-hCCR8
The experiment in a line: flow cytometry, chimeric IgG on CHO-hCCR8 cells. The method, then:
5×10⁴ CHO-hCCR8 or CHO-cynoCCR8 cells were added per well in a 96-well U-shaped plate and centrifuged to discard the supernatant, 100 μL of a gradiently diluted anti-CCR8 chimeric antibody or anti-KLH isotype control antibody was added per well and the mixture was incubated on ice for 60 minutes. After the unbound primary antibody was washed away, 50 μL of a secondary antibody AlexaFluro647 anti-human IgG (Jackson Immuno Research #109-606-170) was added per well and the mixture was incubated on ice for 30 minutes. After the washing, 50 μL of 5 μg/mL of a PI/BSA solution was added to each well and the mixture was incubated on ice for 5 minutes. Then excess secondary antibody was washed away with 0.5% BSA, the cells were resuspended by adding a PBS solution, and binding of the antibody to the cells was detected using a flow cytometer (Intellicyte iQue). The fluorescence value of a Pi-negative cell population was analyzed. Cell-binding curves were fitted by Graphpad Prism 7 (FIG. 2). The chimeric antibodies of 87D8, 102H5, 109F6, 110G2, 113B3, 139A9, 144D2, etc. all bound with high affinities to human CCR8+ cells CHO-hCCR8 and cynomolgus monkey CCR8+ cells CHO-cynoCCR8.
With B9, the midpoint of the response, the EC50, lay at 3.39 nM. In other words, the single-digit nanomolar range.

Regarding B10, the midpoint of the response, the EC50, lay at 3.24 nM.

The target in a further experiment is T2, human CCR8. The experiment in a line: flow cytometry, purified Fab on CHO-hCCR8 cells. Background: Flow cytometry measures light scatter and fluorescence of single cells or particles in a stream.
Turning to B1, it took 2.8 nM to reach a half-maximal effect (EC50).

For the molecule B11, the EC50 is 1.34 nM.

Molecule B12 gave an EC50 of 2.22 nM.

As to B13, a half-maximal response (EC50) required 2.83 nM.

On to B14, for which the EC50 is 4.85 nM.

Molecule B15 came in with an EC50 of 8.27 nM.

Molecule B16 had an EC50 of 13.8 nM.

The molecule B17 gave an EC50 of 5.72 nM.

Regarding B18, the EC50 worked out at 3.16 nM.

For B19, the EC50 came to 6.68 nM.

Molecule B20 came in with an EC50 of 4.71 nM.

Consider B21, for which a half-maximal effect (EC50) was put at 6.75 nM. The EC50 values of the last two molecules are within 1.5-fold of each other.

Turning to B22, the EC50 was found to be 3.87 nM.

In turn, B23 gave an EC50 of 2.69 nM.

Another experiment addresses T2, human CCR8. The experiment in a line: cell-based or functional assay.
With B9, the “ADCC EC50 (nM), NK92-CD16A effectors, HEK293-hCCR8 targets, LDH release” value is 0.21 nM.

With B10, the “ADCC EC50 (nM), NK92-CD16A effectors, HEK293-hCCR8 targets, LDH release” value stood at 0.1 nM.
